Test results: patent US10800847

Columns and labels:
[1] = target: HLA-Cw*1701 (Cw17) (human); assay: Luminex, iBead vs regular bead MFI, 1:8
[2] = target: HLA-Cw*0102 (Cw1) (human); assay: Luminex, iBead vs regular bead MFI, 1:8
[3] = target: HLA-Cw*0304 (Cw10) (human); assay: Luminex, iBead vs regular bead MFI, 1:8
[4] = target: HLA-Cw*0801 (Cw8) (human); assay: Luminex, iBead vs regular bead MFI, 1:8
[5] = target: HLA-Cw*0202 (Cw2) (human); assay: Luminex, iBead vs regular bead MFI, 1:8
[6] = target: Albumin (negative control beads) (human or bovine); assay: Luminex, iBead vs regular bead MFI, 1:8
[7] = target: HLA-Cw*0501 (Cw5) (human); assay: Luminex, iBead vs regular bead MFI, 1:8
[8] = target: HLA-B*8201 (B82) (human); assay: Luminex, iBead vs regular bead MFI, 1:8
[9] = target: HLA-Cw*1601 (Cw16) (human); assay: Luminex, iBead vs regular bead MFI, 1:8
[10] = target: HLA-Cw*0702 (Cw7) (human); assay: Luminex, iBead vs regular bead MFI, 1:8
[11] = target: HLA-Cw*1203 (Cw12) (human); assay: Luminex, iBead vs regular bead MFI, 1:8
[12] = target: HLA-Cw*0303 (Cw9) (human); assay: Luminex, iBead vs regular bead MFI, 1:8
[13] = target: HLA-Cw*1802 (Cw18) (human); assay: Luminex, iBead vs regular bead MFI, 1:8
[14] = target: HLA-Cw*0602 (Cw6) (human); assay: Luminex, iBead vs regular bead MFI, 1:8
[15] = target: HLA-Cw*1701 (Cw17) (human); assay: Luminex, regular beads (#7), 1:8
[16] = target: HLA-Cw*0302 (Cw10) (human); assay: Luminex, regular beads (#7), 1:8
[17] = target: HLA-Cw*0102 (Cw1) (human); assay: Luminex, regular beads (#7), 1:8
[18] = target: HLA-Cw*0304 (Cw10) (human); assay: Luminex, regular beads (#7), 1:8
[19] = target: HLA-Cw*0202 (Cw2) (human); assay: Luminex, regular beads (#7), 1:8
[20] = target: Albumin (negative control beads) (human or bovine); assay: Luminex, regular beads (#7), 1:8
[21] = target: HLA-Cw*0501 (Cw5) (human); assay: Luminex, regular beads (#7), 1:8
[22] = target: HLA-Cw*0401 (Cw4) (human); assay: Luminex, regular beads (#7), 1:8
[23] = target: HLA-B*8201 (B82) (human); assay: Luminex, regular beads (#7), 1:8
[24] = target: HLA-Cw*1402 (Cw14) (human); assay: Luminex, regular beads (#7), 1:8
[25] = target: HLA-Cw*1601 (Cw16) (human); assay: Luminex, regular beads (#7), 1:8
[26] = target: HLA-Cw*0702 (Cw7) (human); assay: Luminex, regular beads (#7), 1:8
[27] = target: HLA-Cw*1203 (Cw12) (human); assay: Luminex, regular beads (#7), 1:8
[28] = target: HLA-Cw*1502 (Cw15) (human); assay: Luminex, regular beads (#7), 1:8
[29] = target: HLA-Cw*0303 (Cw9) (human); assay: Luminex, regular beads (#7), 1:8
[30] = target: HLA-Cw*1802 (Cw18) (human); assay: Luminex, regular beads (#7), 1:8
[31] = target: HLA-Cw*0602 (Cw6) (human); assay: Luminex, regular beads (#7), 1:8
[32] = target: HLA-A*8001 (A80) single antigen on Luminex beads (human); assay: Luminex single antigen bead assay, regular beads (#7), IVIg 1:8
[33] = target: HLA-A*6901 (A69) single antigen on Luminex beads (human); assay: as above
[34] = target: HLA-A*7401 (A74) single antigen on Luminex beads (human); assay: as above
[35] = target: HLA-Cw*1701 (Cw17) (human); assay: Luminex, iBeads (#6), 1:8
[36] = target: HLA-Cw*0302 (Cw10) (human); assay: Luminex, iBeads (#6), 1:8
[37] = target: HLA-Cw*0304 (Cw10) (human); assay: Luminex, iBeads (#6), 1:8
[38] = target: HLA-Cw*0801 (Cw8) (human); assay: Luminex, iBeads (#6), 1:8
[39] = target: Albumin (negative control beads) (human or bovine); assay: Luminex, iBeads (#6), 1:8
[40] = target: HLA-Cw*0501 (Cw5) (human); assay: Luminex, iBeads (#6), 1:8
[41] = target: HLA-B*8201 (B82) (human); assay: Luminex, iBeads (#6), 1:8
[42] = target: HLA-Cw*1402 (Cw14) (human); assay: Luminex, iBeads (#6), 1:8
[43] = target: HLA-Cw*1601 (Cw16) (human); assay: Luminex, iBeads (#6), 1:8
[44] = target: HLA-Cw*0702 (Cw7) (human); assay: Luminex, iBeads (#6), 1:8
[45] = target: HLA-Cw*1203 (Cw12) (human); assay: Luminex, iBeads (#6), 1:8
[46] = target: HLA-Cw*1502 (Cw15) (human); assay: Luminex, iBeads (#6), 1:8
[47] = target: HLA-Cw*0303 (Cw9) (human); assay: Luminex, iBeads (#6), 1:8
[48] = target: HLA-Cw*1802 (Cw18) (human); assay: Luminex, iBeads (#6), 1:8
[49] = target: HLA-Cw*0602 (Cw6) (human); assay: Luminex, iBeads (#6), 1:8
[50] = target: HLA-Cw*1402 (Cw14) (human); assay: Luminex, iBead vs regular bead MFI, 1:8

IVIg Gamunex-C Lot NKLK1 (antibody)
Difference % [1]: -42%
Difference % [2]: -75%
Difference % [3]: -59%
Difference % [4]: -90%
Difference % [5]: -59%
Difference % [6]: -24%
Difference % [7]: -66%
Difference % [8]: -104%
Difference % [9]: -77%
Difference % [10]: -77%
Difference % [11]: -65%
Difference % [12]: -45%
Difference % [13]: -79%
Difference % [14]: -80%
MFI [15]: 5640 MFI
MFI [16]: 4130 MFI
MFI [17]: 4310 MFI
MFI [18]: 4430 MFI
MFI [19]: 6810 MFI
MFI [20]: 10300 MFI
MFI [21]: 5980 MFI
MFI [22]: 6480 MFI
MFI [23]: 4780 MFI
MFI [24]: 6160 MFI
MFI [25]: 6850 MFI
MFI [26]: 10500 MFI
MFI [27]: 5610 MFI
MFI [28]: 3690 MFI
MFI [29]: 3020 MFI
MFI [30]: 7160 MFI
MFI [31]: 10600 MFI
MFI [32]: 1680 MFI
MFI [33]: 2780 MFI
MFI [34]: 224 MFI
MFI [35]: 3250 MFI
MFI [36]: 1770 MFI
MFI [37]: 1820 MFI
MFI [38]: 467 MFI
MFI [39]: 7800 MFI
MFI [40]: 2020 MFI
MFI [41]: -193 MFI
MFI [42]: 1070 MFI
MFI [43]: 1560 MFI
MFI [44]: 2400 MFI
MFI [45]: 1950 MFI
MFI [46]: 1200 MFI
MFI [47]: 1660 MFI
MFI [48]: 1480 MFI
MFI [49]: 2110 MFI

IVIg GamaSTAN S/D (Talecris Biotherapeutics, USA) (antibody)
Difference % [1]: 22%
Difference % [2]: -38%
Difference % [3]: -26%
Difference % [4]: -32%
Difference % [5]: 13%
Difference % [6]: 33%
Difference % [7]: -9%
Difference % [8]: 10%
Difference % [50]: -57%
Difference % [9]: -45%
Difference % [10]: -54%
Difference % [11]: -54%
Difference % [12]: -9%
Difference % [13]: -2%
MFI [15]: 7860 MFI
MFI [16]: 4010 MFI
MFI [17]: 4540 MFI
MFI [18]: 3710 MFI
MFI [19]: 7180 MFI
MFI [20]: 3790 MFI
MFI [21]: 6970 MFI
MFI [22]: 6290 MFI
MFI [23]: 3860 MFI
MFI [24]: 4270 MFI
MFI [26]: 7620 MFI
MFI [28]: 6170 MFI
MFI [29]: 2860 MFI
MFI [30]: 7980 MFI
MFI [31]: 9170 MFI
MFI [35]: 9610 MFI
MFI [36]: 2380 MFI
MFI [37]: 2750 MFI
MFI [38]: 1940 MFI
MFI [39]: 5030 MFI
MFI [40]: 6350 MFI
MFI [41]: 4260 MFI
MFI [42]: 1820 MFI
MFI [43]: 2950 MFI
MFI [44]: 3480 MFI
MFI [45]: 2660 MFI
MFI [46]: 7670 MFI
MFI [47]: 2610 MFI
MFI [48]: 7810 MFI
MFI [49]: 8180 MFI

IVIg Gamunex-C Lot NKLG1 (antibody)
Difference % [1]: -6%
Difference % [2]: -2%
Difference % [3]: -28%
Difference % [4]: -40%
Difference % [5]: -32%
Difference % [7]: -47%
Difference % [8]: -55%
Difference % [50]: -45%
Difference % [9]: -52%
Difference % [10]: -54%
Difference % [11]: -32%
Difference % [12]: 1%
Difference % [13]: -58%
Difference % [14]: -65%
MFI [15]: 6560 MFI
MFI [20]: 10800 MFI
MFI [21]: 7550 MFI
MFI [22]: 7530 MFI
MFI [23]: 6060 MFI
MFI [24]: 7240 MFI
MFI [25]: 8460 MFI
MFI [26]: 11800 MFI
MFI [27]: 7100 MFI
MFI [29]: 4260 MFI
MFI [30]: 8430 MFI
MFI [31]: 12000 MFI
MFI [32]: 3190 MFI
MFI [33]: 2810 MFI
MFI [34]: 666 MFI
MFI [35]: 6150 MFI
MFI [36]: 4870 MFI
MFI [37]: 4140 MFI
MFI [39]: 7150 MFI
MFI [40]: 4010 MFI
MFI [41]: 2730 MFI
MFI [42]: 3970 MFI
MFI [43]: 4070 MFI
MFI [45]: 4810 MFI
MFI [46]: 3590 MFI
MFI [47]: 4290 MFI
MFI [48]: 3580 MFI
MFI [49]: 4230 MFI
